# Experimental data from paper PMC7337490.
# T1: GFP-MKLP2 WT (human), O95235
# T1 chain: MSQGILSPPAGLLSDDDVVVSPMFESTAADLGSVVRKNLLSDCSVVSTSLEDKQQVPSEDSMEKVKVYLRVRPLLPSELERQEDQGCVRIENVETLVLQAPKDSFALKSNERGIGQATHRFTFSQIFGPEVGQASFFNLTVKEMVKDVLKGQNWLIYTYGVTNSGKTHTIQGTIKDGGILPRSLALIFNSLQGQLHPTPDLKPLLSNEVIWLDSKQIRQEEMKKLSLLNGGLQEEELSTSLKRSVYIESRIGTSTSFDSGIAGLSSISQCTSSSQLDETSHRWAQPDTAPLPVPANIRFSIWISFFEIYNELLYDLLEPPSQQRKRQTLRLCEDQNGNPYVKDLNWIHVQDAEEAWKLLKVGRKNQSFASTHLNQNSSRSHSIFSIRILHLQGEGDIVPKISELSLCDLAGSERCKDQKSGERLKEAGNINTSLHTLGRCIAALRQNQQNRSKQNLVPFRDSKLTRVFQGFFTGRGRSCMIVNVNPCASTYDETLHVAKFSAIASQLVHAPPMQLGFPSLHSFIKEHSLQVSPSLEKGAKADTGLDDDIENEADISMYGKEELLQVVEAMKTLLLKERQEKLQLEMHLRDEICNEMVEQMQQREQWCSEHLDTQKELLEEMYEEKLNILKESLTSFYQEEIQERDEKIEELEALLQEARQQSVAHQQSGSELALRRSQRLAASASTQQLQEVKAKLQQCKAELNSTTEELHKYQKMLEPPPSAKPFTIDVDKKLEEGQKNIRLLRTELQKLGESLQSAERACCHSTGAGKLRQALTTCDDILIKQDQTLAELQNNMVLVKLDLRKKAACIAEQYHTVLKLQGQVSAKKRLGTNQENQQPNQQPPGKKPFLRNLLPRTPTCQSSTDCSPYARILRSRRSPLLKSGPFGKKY
# T2: MKLP2 (endogenous) (human (endogenous in HeLa)), O95235
# T2 chain: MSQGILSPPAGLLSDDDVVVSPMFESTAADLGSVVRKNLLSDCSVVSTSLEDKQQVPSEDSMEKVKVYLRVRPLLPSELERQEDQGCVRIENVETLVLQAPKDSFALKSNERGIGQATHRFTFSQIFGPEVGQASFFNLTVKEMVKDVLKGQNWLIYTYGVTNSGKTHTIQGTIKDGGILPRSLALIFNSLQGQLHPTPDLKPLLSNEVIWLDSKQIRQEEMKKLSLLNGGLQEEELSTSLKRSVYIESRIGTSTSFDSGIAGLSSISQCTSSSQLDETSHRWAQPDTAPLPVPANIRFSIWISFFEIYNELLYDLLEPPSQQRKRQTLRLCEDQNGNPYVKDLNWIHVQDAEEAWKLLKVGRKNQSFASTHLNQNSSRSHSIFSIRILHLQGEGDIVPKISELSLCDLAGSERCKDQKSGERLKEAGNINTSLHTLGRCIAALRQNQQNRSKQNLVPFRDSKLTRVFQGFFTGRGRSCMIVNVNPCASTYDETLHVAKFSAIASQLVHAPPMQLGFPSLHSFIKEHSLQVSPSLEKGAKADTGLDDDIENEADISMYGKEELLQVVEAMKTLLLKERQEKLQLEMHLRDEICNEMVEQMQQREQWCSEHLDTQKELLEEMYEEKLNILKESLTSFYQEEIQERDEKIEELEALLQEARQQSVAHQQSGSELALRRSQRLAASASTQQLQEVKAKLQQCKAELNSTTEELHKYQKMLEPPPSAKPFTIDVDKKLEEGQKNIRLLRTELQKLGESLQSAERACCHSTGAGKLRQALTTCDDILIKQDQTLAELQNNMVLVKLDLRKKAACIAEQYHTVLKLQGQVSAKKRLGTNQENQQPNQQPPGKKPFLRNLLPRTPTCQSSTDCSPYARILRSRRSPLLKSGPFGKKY
# How the values were obtained:
# [1] = biological target: T1, GFP-MKLP2 WT (human), O95235; assay: SEC; 1 mg lysate of nocodazole-arrested HeLa cells on Superose 6 10/300 at 4°C; fractions Western blotted for MKLP2 and GFP; size from calibration standards; conditions: remark: other sources report otherwise
# [2] = biological target: T2, MKLP2 (endogenous) (human (endogenous …)); assay: as above; conditions: remark: other sources report otherwise
stoichiometry N [1],stoichiometry N [2],Binder
2,,"GFP-MKLP2 WT, O95235 1-890 (natural protein) MSQGILSPPAGLLSDDDVVVSPMFESTAADLGSVVRKNLLSDCSVVSTSLEDKQQVPSEDSMEKVKVYLRVRPLLPSELERQEDQGCVRIENVETLVLQAPKDSFALKSNERGIGQATHRFTFSQIFGPEVGQASFFNLTVKEMVKDVLKGQNWLIYTYGVTNSGKTHTIQGTIKDGGILPRSLALIFNSLQGQLHPTPDLKPLLSNEVIWLDSKQIRQEEMKKLSLLNGGLQEEELSTSLKRSVYIESRIGTSTSFDSGIAGLSSISQCTSSSQLDETSHRWAQPDTAPLPVPANIRFSIWISFFEIYNELLYDLLEPPSQQRKRQTLRLCEDQNGNPYVKDLNWIHVQDAEEAWKLLKVGRKNQSFASTHLNQNSSRSHSIFSIRILHLQGEGDIVPKISELSLCDLAGSERCKDQKSGERLKEAGNINTSLHTLGRCIAALRQNQQNRSKQNLVPFRDSKLTRVFQGFFTGRGRSCMIVNVNPCASTYDETLHVAKFSAIASQLVHAPPMQLGFPSLHSFIKEHSLQVSPSLEKGAKADTGLDDDIENEADISMYGKEELLQVVEAMKTLLLKERQEKLQLEMHLRDEICNEMVEQMQQREQWCSEHLDTQKELLEEMYEEKLNILKESLTSFYQEEIQERDEKIEELEALLQEARQQSVAHQQSGSELALRRSQRLAASASTQQLQEVKAKLQQCKAELNSTTEELHKYQKMLEPPPSAKPFTIDVDKKLEEGQKNIRLLRTELQKLGESLQSAERACCHSTGAGKLRQALTTCDDILIKQDQTLAELQNNMVLVKLDLRKKAACIAEQYHTVLKLQGQVSAKKRLGTNQENQQPNQQPPGKKPFLRNLLPRTPTCQSSTDCSPYARILRSRRSPLLKSGPFGKKY"
,2,"MKLP2 (endogenous), O95235 1-890 (natural protein) MSQGILSPPAGLLSDDDVVVSPMFESTAADLGSVVRKNLLSDCSVVSTSLEDKQQVPSEDSMEKVKVYLRVRPLLPSELERQEDQGCVRIENVETLVLQAPKDSFALKSNERGIGQATHRFTFSQIFGPEVGQASFFNLTVKEMVKDVLKGQNWLIYTYGVTNSGKTHTIQGTIKDGGILPRSLALIFNSLQGQLHPTPDLKPLLSNEVIWLDSKQIRQEEMKKLSLLNGGLQEEELSTSLKRSVYIESRIGTSTSFDSGIAGLSSISQCTSSSQLDETSHRWAQPDTAPLPVPANIRFSIWISFFEIYNELLYDLLEPPSQQRKRQTLRLCEDQNGNPYVKDLNWIHVQDAEEAWKLLKVGRKNQSFASTHLNQNSSRSHSIFSIRILHLQGEGDIVPKISELSLCDLAGSERCKDQKSGERLKEAGNINTSLHTLGRCIAALRQNQQNRSKQNLVPFRDSKLTRVFQGFFTGRGRSCMIVNVNPCASTYDETLHVAKFSAIASQLVHAPPMQLGFPSLHSFIKEHSLQVSPSLEKGAKADTGLDDDIENEADISMYGKEELLQVVEAMKTLLLKERQEKLQLEMHLRDEICNEMVEQMQQREQWCSEHLDTQKELLEEMYEEKLNILKESLTSFYQEEIQERDEKIEELEALLQEARQQSVAHQQSGSELALRRSQRLAASASTQQLQEVKAKLQQCKAELNSTTEELHKYQKMLEPPPSAKPFTIDVDKKLEEGQKNIRLLRTELQKLGESLQSAERACCHSTGAGKLRQALTTCDDILIKQDQTLAELQNNMVLVKLDLRKKAACIAEQYHTVLKLQGQVSAKKRLGTNQENQQPNQQPPGKKPFLRNLLPRTPTCQSSTDCSPYARILRSRRSPLLKSGPFGKKY"
